pKd: −log10 of the molar value.
Tests used:
[1] = molecular target: human IR FnIII-1 domain (residues 460-596; C468A, C524A, DFR496-498AAA) (human) (UniProt P06213); assay: ITC
[2] = molecular target: human IR L1-CR-L2/α-CT domains (human) (UniProt P06213); assay: ITC

pKd [1]: 6.12
pKd [2]: 7.05
Substance: insulin WT (ΔB30; desB30 human insulin) (ligand)

Reference: PMC9115778
